The chains are these.
T1: human NGL-1 expressed on COS7 cells (human, UniProt Q9HCJ2 43-640)
T1 construct: also called PRO331; Netrin-G1 Ligand
T1 sequence: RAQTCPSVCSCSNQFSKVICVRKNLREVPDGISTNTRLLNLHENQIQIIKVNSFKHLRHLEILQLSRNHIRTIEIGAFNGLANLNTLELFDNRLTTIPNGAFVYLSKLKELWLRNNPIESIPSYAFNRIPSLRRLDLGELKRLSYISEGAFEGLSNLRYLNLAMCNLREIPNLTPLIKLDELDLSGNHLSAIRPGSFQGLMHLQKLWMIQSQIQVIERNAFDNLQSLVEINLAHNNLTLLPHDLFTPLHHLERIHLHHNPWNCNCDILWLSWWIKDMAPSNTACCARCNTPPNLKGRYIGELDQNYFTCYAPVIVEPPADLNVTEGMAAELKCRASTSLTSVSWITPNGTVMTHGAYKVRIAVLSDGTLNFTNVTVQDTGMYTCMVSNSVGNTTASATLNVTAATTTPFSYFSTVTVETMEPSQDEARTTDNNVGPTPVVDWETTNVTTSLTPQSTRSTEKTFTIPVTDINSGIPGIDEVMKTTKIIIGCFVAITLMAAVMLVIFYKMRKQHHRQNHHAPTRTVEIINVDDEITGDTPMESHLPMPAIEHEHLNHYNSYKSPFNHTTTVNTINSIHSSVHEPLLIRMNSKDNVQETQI

B1: human NGL-1-Fc (extracellular domain of human NGL-1 fused to human IgG1 Fc) (Fc fusion)
chain: QTCPSVCSCSNQFSKVICVRKNLREVPDGISTNTRLLNLHENQIQIIKVNSFKHLRHLEILQLSRNHIRTIEIGAFNGLANLNTLELFDNRLTTIPNGAFVYLSKLKELWLRNNPIESIPSYAFNRIPSLRRLDLGELKRLSYISEGAFEGLSNLRYLNLAMCNLREIPNLTPLIKLDELDLSGNHLSAIRPGSFQGLMHLQKLWMIQSQIQVIERNAFDNLQSLVEINLAHNNLTLLPHDLFTPLHHLERIHLHHNPWNCNCDILWLSWWIKDMAPSNTACCARCNTPPNLKGRYIGELDQNYFTCYAPVIVEPPADLNVTEGMAAELKCRASTSLTSVSWITPNGTVMTHGAYKVRIAVLSDGTLNFTNVTVQDTGMYTCMVSNSVGNTTASATLNVTAATTTPFSYFSTVTVETMEPSQDEARTTDNNVGPTPVVDWETTNVTTSLTPQSTRSTEKTFTIPVTDINSGIPGIDEVMKTTK
notes: also called NGL-1-ECD IgG Fc fusion protein; PRO331 ECD-Fc; not shown: human IgG1 Fc region
B2: human Netrin-G1-his (purified Netrin-G1 protein with a C-terminus His tag) (receptor, UniProt Q9Y2I2-1 29-409, looked up, not shown: small tags and cut ends)
chain: HYDLCKTQIYTEEGKVWDYMACQPESTDMTKYLKVKLDPPDITCGDPPETFCAMGNPYMCNNECDASTPELAHPPELMFDFEGRHPSTFWQSATWKEYPKPLQVNITLSWSKTIELTDNIVITFESGRPDQMILEKSLDYGRTWQPYQYYATDCLDAFHMDPKSVKDLSQHTVLEIICTEEYSTGYTTNSKIIHFEIKDRFAFFAGPRLRNMASLYGQLDTTKKLRDFFTVTDLRIRLLRPAVGEIFVDELHLARYFYAISDIKVRGRCKCNLHATVCVYDNSKLTCECEHNTTGPDCGKCKKNYQGRPWSPGSYLPIPKGTANTCIPSISSIGTNVCDNELLHCQNGGTCHNNVRCLCPAAYTGILCEKLRCEEAGSCGS
notes: Used purified in the pull-down and as a crude preparation (1 ug/ml) for coating in the solid phase assay; also called NetrinG-his
B3: recombinant human cMet-Fc fusion protein (R&D Systems) (Fc fusion)
chain: ECKEALAKSEMNVNMKYQLPNFTAETPIQNVILHEHHIFLGATNYIYVLNEEDLQKVAEYKTGPVLEHPDCFPCQDCSSKANLSGGVWKDNINMALVVDTYYDDQLISCGSVNRGTCQRHVFPHNHTADIQSEVHCIFSPQIEEPSQCPDCVVSALGAKVLSSVKDRFINFFVGNTINSSYFPDHPLHSISVRRLKETKDGFMFLTDQSYIDVLPEFRDSYPIKYVHAFESNNFIYFLTVQRETLDAQTFHTRIIRFCSINSGLHSYMEMPLECILTEKRKKRSTKKEVFNILQAAYVSKPGAQLARQIGASLNDDILFGVFAQSKPDSAEPMDRSAMCAFPIKYVNDFFNKIVNKNNVRCLQHFYGPNHEHCFNRTLLRNSSGCEARRDEYRTEFTTALQRVDLFMGQFSEVLLTSISTFIKGDLTIANLGTSEGRFMQVVVSRSGPSTPHVNFLLDSHPVSPEVIVEHTLNQNGYTLVITGKKITKIPLNGLGCRHFQSCSQCLSAPPFVQCGWCHDKCVRSEECLSGTWTQQICLPAIYKVFPNSAPLEGGTRLTICGWDFGFRRNNKFDLKKTRVLLGNESCTLTLSESTMNTLKCTVGPAMNKHFNMSIIISNGHGTTQYSTFSYVDPVITSISPKYGPMAGGTLLTLTGNYLNSGNSRHISIGGKTCTLKSVSNSILECYTPAQTISTEFAVKLKIDLANRETSIFSYREDPIVYEIHPTKSFISGGSTITGVGKNLNSVSVPRMVINVHEAGRNFTVACQHRSNSEIICCTTPSLQQLNLQLPLKTKAFFMLDGILSKYFDLIYVHNPVFKPFEKPVMISMGNENVLEIKGNDIDPEAVKGEVLKVGNKSCENIHLHSEAVLCTVPNDLLKLNSELNIEWKQAISSTVLGKVIVQPDQNFT
notes: extracellular domain; Bought protein; the construct is not described; not shown: Fc part of the bought fusion protein, not described

Experiment [1] concerns the target T1, human NGL-1 expressed on COS7 cells. In words: cell surface binding assay on transfected COS7 cells, fluorescence microscopy. The method, then: (§1) The resultant fusion proteins were expressed and used in binding assays over a panel of ˜400 putative cell surface transmembrane or GPI-anchored cell surface human proteins that were transiently expressed in COS7 cells. Purified ECD-Fc fusion proteins (0.5 μg/ml) or the crude baculovirus lysates were added to transiently transfected COS7 cells for 1-2 hours at room temperature. After 3 rinses with cold phosphate buffered saline (PBS), the bound protein was cross-linked to the cell surface with 4% paraformaldehyde. The bound Fc fusion protein was detected by biotinylated anti-human IgGFc and R-phycoerythrin-conjugated streptavidin (Jackson Immunoresearch). Cell surface staining was visualized by fluorescent microscopy and images were taken with the Penguin 800CL digital camera system (Pixera).
(§2) Although the NGL-1 and Netrin-G1 interaction appeared to be specific within the context of the screen, the classical Netrins and their known receptors, DCC and Unc5, were not included in the screen. Thus whether NGL-1 also interacts with Netrin-1 and its receptors was determined. Using the same cell surface binding assay, NGL-1, Netrin-G1, or Netrin-1 were expressed in COS7 cells (rows in FIG. 1a-i) and their ability to bind the IgG Fe fusion protein of NGL-1, Netrin-G1, or DCC (columns in FIG. 1a-i) was determined. […]

For experiment [2], the target named is T2, DCC expressed on COS cells (human, UniProt P43146 26-1447).
T2 construct: whole, on cells
T2 sequence (P43146 26-1447): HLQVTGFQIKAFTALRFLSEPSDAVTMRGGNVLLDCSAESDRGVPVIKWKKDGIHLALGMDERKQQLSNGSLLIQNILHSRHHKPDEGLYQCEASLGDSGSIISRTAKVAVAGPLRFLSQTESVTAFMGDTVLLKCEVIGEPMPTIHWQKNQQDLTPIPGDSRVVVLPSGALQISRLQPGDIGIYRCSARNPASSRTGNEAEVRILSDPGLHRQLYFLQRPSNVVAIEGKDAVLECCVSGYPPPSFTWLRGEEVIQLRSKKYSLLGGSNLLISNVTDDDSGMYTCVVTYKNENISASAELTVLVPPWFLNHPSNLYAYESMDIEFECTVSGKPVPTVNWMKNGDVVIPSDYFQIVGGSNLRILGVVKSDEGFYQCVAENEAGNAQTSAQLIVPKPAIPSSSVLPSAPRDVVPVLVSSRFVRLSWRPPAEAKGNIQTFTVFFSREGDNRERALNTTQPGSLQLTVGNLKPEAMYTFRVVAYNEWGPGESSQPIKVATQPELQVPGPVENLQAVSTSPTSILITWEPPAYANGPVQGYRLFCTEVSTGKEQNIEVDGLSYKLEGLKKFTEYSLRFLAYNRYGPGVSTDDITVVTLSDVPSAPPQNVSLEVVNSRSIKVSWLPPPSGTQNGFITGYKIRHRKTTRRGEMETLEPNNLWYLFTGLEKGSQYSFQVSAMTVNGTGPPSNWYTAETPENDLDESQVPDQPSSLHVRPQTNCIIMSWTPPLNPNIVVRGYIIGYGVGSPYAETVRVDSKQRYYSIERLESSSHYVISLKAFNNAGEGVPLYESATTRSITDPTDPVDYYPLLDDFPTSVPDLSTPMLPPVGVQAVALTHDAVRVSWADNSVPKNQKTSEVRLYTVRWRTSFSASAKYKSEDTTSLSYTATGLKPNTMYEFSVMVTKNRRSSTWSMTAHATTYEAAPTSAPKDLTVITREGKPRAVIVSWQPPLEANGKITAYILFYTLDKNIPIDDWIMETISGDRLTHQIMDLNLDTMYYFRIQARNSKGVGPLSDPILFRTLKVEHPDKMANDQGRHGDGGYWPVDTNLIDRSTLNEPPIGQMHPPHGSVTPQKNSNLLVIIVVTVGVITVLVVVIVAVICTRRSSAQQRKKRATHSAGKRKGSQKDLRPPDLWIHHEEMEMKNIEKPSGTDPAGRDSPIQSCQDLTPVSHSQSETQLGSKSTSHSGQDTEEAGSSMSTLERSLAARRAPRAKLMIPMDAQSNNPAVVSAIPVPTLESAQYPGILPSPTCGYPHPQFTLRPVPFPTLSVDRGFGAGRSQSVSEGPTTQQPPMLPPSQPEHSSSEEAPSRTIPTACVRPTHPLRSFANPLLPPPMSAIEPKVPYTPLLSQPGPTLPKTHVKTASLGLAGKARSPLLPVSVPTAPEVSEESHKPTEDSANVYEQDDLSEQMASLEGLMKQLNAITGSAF
In words: cell surface binding assay on transfected COS7 cells, fluorescence microscopy (data not shown). The method, then:
as §1, §2

Experiment [3] has as its target T3, human HGF protein (human, UniProt P14210 32-728, limits assumed).
T3 construct: also called hepatocyte growth factor
In words: solution binding assay, pull-down with protein A beads, blot probed with anti-HGF (panel j). The method, then: (§3) Recombinant human NGL-1-Fc (a-c), human Netrin-G1-Fc (d-f) and human DCC-Fc (g-i) were used to label COS7 cells expressing human NGL-1 (a, d, g), human Netrin-G1 (b, e, h), chicken Netrin-1 (c, f, i). Specific binding of the transfected cells was evident for Netrin-G1-expressing cells labeled with NGL-1-Fc (b), for NGL-1-expressing cells labeled with Netrin-G 1-Fc (d), as well as for Netrin-1-expressing cells labeled with DCC-Fc (i). (j) The recombinant ECD-Fc fusion proteins (5 nM) indicated at the top (lanes 3-7) were incubated with human Netrin-G1-his (first row), chicken Netrin-1-his (second row) or human HGF protein (third row) in a solution binding assay. Complexes were pulled down by protein A-conjugated beads and probed with His-Probe (anti-His), antibodies to chicken netrin-1 and monoclonal antibodies to human HGF, as indicated. Direct and specific binding of NGL-1-Fc and netrin-G1-His (50 kDa) is shown in the first row. The netrin-1-His protein (75-85 kDa) binds strongly to DCC-Fc and Unc5-Fc (lanes 3 and 4, second row), extremely weakly to NGL-1-Fc (lane 5, second row), and not at all to human cMet-Fc (lane 6). HGF binds to cMet-Fc (lane 6, third row). Lane 1, directly loaded netrin-G1-His; lane 2, directly loaded netrin-1-His; lane 7, directly loaded HGF.
(§4) The question remained whether Netrin-G1 and NGL-1 directly interact with each other. […]

The target of experiment [4] is B2. In words: solid phase binding assay: Netrin-G1-his coated in microtiter wells, NGL-1-Fc in solution, OD450; specific binding = total minus cMet-Fc binding. How it is done:
(§5) The binding affinity of NGL-1 and Netrin-G1 was then evaluated by a solid phase binding assay. Crude NetrinG-his protein (1 μg/ml) was coated in microtiter wells and non-specific binding sites saturated with 0.5% BSA. Purified NGL-1-Fc protein was serially diluted and added to the coated wells for 1 hour. Signals were detected with the biotinylated anti-human IgGFc antibody, horseradish peroxidase-conjugated strepavidin and a chromogenic substrate TMB (Kirkgaard and Perry Lab). The reactions were terminated with phosphoric acid and absorbance at 450 nm was measured. Non-specific binding was determined in parallel by omitting the microtiter well coating or by incubating the wells with the irrelevant cMet-Fc fusion protein, and dissociation constants were determined using saturation curves and Scatchard analysis (FIG. 2a). […] Cell 87, 175-185. (1996)].

The target of experiment [5] is B3. In words: solution binding assay, protein A bead pull-down, blot probed with HisProbe. How it is done:
as §3, §4

Experiment [6] deals with B1. In words: solid phase binding assay, Netrin-G1-his coated wells, serial dilution of NGL-1-Fc, saturation curve and Scatchard analysis. The method, then: as §5
The target in experiment [7] is recombinant 6xHis-tagged chick Netrin-1 protein (R&D Systems) (chicken, UniProt Q90922 26-606). In words: solution binding assay, protein A bead pull-down, blot probed with anti-chicken Netrin-1. How it is done: as §3, §4

The record followed here is US20090156489A1 (Genentech, published 2009).

One may read the EC50 (read off the curve) as the midpoint of the concentration-response curve. High values mean a less potent agent, low ones a more potent agent. A word on the Kd: it is the constant that tells how readily two partners part at equilibrium. A lower Kd goes with tighter binding.

T3 sequence (P14210 32-728 limits assumed): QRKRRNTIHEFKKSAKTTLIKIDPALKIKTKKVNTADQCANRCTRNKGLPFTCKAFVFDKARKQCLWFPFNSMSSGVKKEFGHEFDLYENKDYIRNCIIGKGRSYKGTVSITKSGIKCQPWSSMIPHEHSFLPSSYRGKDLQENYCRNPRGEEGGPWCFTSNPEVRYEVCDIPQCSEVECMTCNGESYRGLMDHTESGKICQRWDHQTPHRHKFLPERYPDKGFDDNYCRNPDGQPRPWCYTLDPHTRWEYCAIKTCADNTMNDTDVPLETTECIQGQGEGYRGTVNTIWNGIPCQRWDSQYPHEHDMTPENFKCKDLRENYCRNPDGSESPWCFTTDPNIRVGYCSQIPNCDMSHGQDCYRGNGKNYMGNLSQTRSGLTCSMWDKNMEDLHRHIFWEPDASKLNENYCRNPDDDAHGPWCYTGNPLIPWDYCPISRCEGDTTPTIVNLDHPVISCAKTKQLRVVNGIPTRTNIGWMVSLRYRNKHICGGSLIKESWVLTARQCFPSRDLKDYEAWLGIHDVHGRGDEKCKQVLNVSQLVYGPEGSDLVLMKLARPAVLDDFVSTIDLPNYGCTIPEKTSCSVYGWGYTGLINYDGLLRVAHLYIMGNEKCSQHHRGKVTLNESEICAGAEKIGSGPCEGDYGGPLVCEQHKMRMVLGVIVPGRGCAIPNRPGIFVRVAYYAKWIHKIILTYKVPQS

Regarding B1, the binding result in experiment [1] was “no binding”; in experiment [2], “no binding”; in experiment [3], “no binding (tested: 5 nM)”. Moreover, the “EC50 (read off the curve)” value in experiment [4] is around 2 nM.
On to B2, for which, in experiment [5], the binding result is reported as “no binding”. In experiment [6], this molecule gave a Kd of 1.6 nM.
For the molecule B3, the binding result in experiment [7] is “no binding”.
